Target: T1, SacUVDE (UV damage endonuclease) (Sulfolobus acidocaldarius, UniProt Q4J9T1 1-289)
T1 sequence: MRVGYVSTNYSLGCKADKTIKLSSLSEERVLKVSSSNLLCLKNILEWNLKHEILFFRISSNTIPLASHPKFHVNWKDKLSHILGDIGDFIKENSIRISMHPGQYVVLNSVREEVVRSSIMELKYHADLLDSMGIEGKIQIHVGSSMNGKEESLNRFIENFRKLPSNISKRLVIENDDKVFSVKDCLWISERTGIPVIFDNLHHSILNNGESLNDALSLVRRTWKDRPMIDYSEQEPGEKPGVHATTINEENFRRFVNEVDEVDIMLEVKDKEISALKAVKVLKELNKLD
Assay: X-ray crystallography

B1: 15-mer duplex with 6-4 photoproduct (dsDNA)
DNA 1: GCGTCCTTGACGACG
DNA 2: CGTCGTCAAGGACGC
modifications: 6-4 photoproduct at T7-T8 of strand 1
binding result: binds
